Experimental data reported in patent publication US20260209362A1 (VIB VZW, published 2026).
Substitutions are numbered along the chain they refer to.

T1: biotinylated mouse recombinant IL-12Rβ2 (produced in-house) (mouse, UniProt P97378 24-637, random biotinylated)
T1 construct: Soluble recombinant protein used for panning, ELISA and BLI; also called mIL-12RB2; mIL12RB2
T1 sequence: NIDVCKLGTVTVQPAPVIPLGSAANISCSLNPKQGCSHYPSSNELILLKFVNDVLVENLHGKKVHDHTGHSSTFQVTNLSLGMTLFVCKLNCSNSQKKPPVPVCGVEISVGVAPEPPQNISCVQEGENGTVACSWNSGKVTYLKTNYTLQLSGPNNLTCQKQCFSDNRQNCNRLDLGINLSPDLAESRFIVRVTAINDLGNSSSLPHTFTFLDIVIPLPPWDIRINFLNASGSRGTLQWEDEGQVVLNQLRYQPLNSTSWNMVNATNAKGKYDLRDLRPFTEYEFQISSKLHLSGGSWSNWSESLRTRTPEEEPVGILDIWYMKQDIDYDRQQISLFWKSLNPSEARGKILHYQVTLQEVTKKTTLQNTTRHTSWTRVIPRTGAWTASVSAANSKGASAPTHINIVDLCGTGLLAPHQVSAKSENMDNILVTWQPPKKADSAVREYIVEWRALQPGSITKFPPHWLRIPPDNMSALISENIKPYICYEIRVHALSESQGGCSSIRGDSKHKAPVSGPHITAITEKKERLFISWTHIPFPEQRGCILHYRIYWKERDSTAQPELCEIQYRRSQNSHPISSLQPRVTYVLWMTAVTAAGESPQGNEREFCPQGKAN

T2: biotinylated recombinant human IL-12Rβ2 (human, UniProt Q99665 24-622, random biotinylated)
T2 construct: Recombinant protein produced in-house, biotinylated; also called hIL-12RB2; human IL-12RB2
T2 sequence: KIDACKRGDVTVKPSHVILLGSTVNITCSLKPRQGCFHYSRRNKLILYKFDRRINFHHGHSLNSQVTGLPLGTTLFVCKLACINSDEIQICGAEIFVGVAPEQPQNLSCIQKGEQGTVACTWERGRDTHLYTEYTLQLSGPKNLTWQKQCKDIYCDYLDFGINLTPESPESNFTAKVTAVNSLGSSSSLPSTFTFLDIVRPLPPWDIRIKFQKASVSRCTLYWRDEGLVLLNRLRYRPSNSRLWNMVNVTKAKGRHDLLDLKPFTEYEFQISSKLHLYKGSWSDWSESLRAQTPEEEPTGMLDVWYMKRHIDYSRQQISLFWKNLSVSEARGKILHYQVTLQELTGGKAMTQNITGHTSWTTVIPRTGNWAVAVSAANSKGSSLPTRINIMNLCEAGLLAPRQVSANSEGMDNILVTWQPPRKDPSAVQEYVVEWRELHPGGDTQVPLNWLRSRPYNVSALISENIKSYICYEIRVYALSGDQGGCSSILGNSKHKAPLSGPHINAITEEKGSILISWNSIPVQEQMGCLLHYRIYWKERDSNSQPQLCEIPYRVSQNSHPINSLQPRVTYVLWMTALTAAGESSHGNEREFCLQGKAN

T3: human IL-12Rβ2 expressed on cells (human, UniProt Q99665 24-862)
T3 construct: the cell lines are described by plasmid or cDNA number only; also called hIL-12RB2; HEK293T transiently transfected with human IL-12Rβ2
T3 sequence: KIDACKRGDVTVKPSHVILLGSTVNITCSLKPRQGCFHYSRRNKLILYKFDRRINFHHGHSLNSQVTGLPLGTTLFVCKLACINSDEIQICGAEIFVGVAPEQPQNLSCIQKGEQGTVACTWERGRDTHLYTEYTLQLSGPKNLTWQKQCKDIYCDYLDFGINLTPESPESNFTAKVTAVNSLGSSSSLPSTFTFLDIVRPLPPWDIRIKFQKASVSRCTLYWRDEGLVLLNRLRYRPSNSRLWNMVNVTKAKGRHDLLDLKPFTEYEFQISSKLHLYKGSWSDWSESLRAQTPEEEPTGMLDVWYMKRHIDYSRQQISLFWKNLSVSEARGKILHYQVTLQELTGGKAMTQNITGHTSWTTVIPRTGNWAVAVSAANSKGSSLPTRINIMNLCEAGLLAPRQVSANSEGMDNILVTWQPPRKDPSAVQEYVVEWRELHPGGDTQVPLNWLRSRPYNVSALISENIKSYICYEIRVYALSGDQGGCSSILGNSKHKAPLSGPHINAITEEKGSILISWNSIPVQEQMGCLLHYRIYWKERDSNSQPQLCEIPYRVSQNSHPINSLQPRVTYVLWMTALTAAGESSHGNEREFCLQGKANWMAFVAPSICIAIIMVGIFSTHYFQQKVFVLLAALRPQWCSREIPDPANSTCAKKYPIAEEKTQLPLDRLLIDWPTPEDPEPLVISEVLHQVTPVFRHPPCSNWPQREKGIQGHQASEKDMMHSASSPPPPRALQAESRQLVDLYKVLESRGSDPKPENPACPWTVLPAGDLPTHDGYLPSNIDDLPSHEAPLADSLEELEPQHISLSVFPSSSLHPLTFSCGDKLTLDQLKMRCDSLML

T4: biotinylated human recombinant IL-12Rβ2 (produced in-house) (human, UniProt Q99665 24-622, random biotinylated)
T4 construct: Soluble recombinant protein used for panning, ELISA and BLI; also called hIL-12RB2; hIL12RB2
T4 sequence: T2 sequence

T5: biotinylated recombinant mouse IL-12Rβ2 (mouse, UniProt P97378 24-637, random biotinylated)
T5 construct: Recombinant protein produced in-house, biotinylated; also called mIL-12RB2; mouse IL-12RB2
T5 sequence: T1 sequence

B1: anti-IL-12Rβ2 VHH clone 2CRH82 (clone ID 20372) (VHH)
VHH: QVQLQESGGGLVQAGGSLRLSCAASARTESMYAMAWFRQAPGKEREIVAGIIQSGGTTYISDYMKGRFSIDRGNAENTVYLQMDSLKPEDTAVYSCAAKVSSGTPSDIQISQSRWYDHWGQGTQVTVSS
notes: Tested as periplasmic extract; not shown: C-terminal HA tag
B2: anti-IL-12Rβ2 VHH clone 3CRHS128 (clone ID 20432) (VHH)
VHH: QVQLQESGGGLVQPGGSLRLSCAASGFTFSTSGMHWFRQAPGKGLEWVSSIGATVDNSYYASSVKGRFTISRDNAKNTLYLLMNSLKSEDTAVYYCSKDPTGSSRGQGTQVTVSS
notes: as for B1
B3: anti-IL-12Rβ2 VHH clone 3CRHS51 (clone ID 20421) (VHH)
VHH: QVQLQESGGGLVQPGGSLRLSCAASGFTFSTYAMSWVRQAPGKGLEWVSAVNSGGLSTDYADSVEGRFTISRDDAKNMLFLQMNRLKPEDTARYYCAKYEDCSDYVCDRAGYWGQGTQVTVSS
notes: Tested as periplasmic extract; also called 3CRHSS1; not shown: C-terminal HA tag
B4: anti-IL-12Rβ2 VHH clone 3CRHS54 (clone ID 20422) (VHH)
VHH: QVQLQESGGGLVQPGGSLRLSCTASGSIVSIYNMDWYRQAPGNEREWVASITSSGDPYYDGSAKGRFTISRDNAKMTVYLQMNSLEPEDTAVYFCKVPTEKGNYWGQGTQVTVSS
notes: Tested as periplasmic extract (P.E.) from the pMECS vector; not shown: C-terminal HA tag
B5: anti-IL-12Rβ2 VHH clone 3CRHS9 (clone ID 20415) (VHH)
VHH: B4 VHH with E86K, F94Y
notes: Tested as periplasmic extract; also called 3CRMS9; not shown: C-terminal HA tag
B6: anti-IL-12Rβ2 VHH clone 20370 (VHH, not shown: small tags and cut ends)
VHH: QVQLQESGGGLVQTGGSLRLSCVASGRTFNWSAMGWFRQPPGKEREVVATISGGGTSAYYADSVKGRFTISRDGAKNTLYLQMNSLKPEDTAVYYCAADRVDYRMTLTQNGNHYWGQGTQVTVSS
notes: tested as periplasmic extract; also called 2CRH76
B7: anti-IL-12Rβ2 VHH clone 20372 (VHH, not shown: small tags and cut ends)
VHH: B1 VHH
notes: tested as periplasmic extract; also called 2CRH82
B8: anti-IL-12Rβ2 VHH clone 20391 (VHH, not shown: small tags and cut ends)
VHH: QVQLQESGGGLVQAGGSLRLSCAASGRTVDSYAMGWFRQTPGKEREFVAASWGGGSTYYADSVKGRFTISRDNVKNTMYLQMDSLKPEDTAVYYCAAGPTYYSGPINDNWEGRYDSWGQGTQVTVSS
notes: tested as periplasmic extract; also called 3CRH93
B9: anti-IL-12Rβ2 VHH clone 20358 (VHH, not shown: small tags and cut ends)
VHH: QVQLQESGGGSVQPGGSLRLSCGASGFTFSSFGMHWFRQAPGKGQEWAATISSSGGTTYYSDSVKGRFTISRDNAKNTLYLQMNSLKPEDTALYYCARDVTGAVRGQGTQVTVSS
notes: tested as periplasmic extract; also called 3CAH34
B10: anti-IL-12Rβ2 VHH clone 20408 (VHH, not shown: small tags and cut ends)
VHH: B9 VHH with P14A, A48V
notes: tested as periplasmic extract; also called 3CAHS172
B11: anti-IL-12Rβ2 VHH clone 20404 (VHH, not shown: small tags and cut ends)
VHH: QVQLQESGGGLVQAGGSLRLSCAASGRTFSSYAMGWFRQVPGKERDFVAAVSWGGLSTYYADSVEGRFTISRDNAKNTVFLQMNSLKPEDTAVYYCAADRAYEGLGYGEYEYWGQGTQVTVSS
notes: tested as periplasmic extract; also called 3CAHS153
B12: anti-IL-12Rβ2 VHH clone 20389 (VHH, not shown: small tags and cut ends)
VHH: QVQLQESGGGLVRAGGSLRLSCAASGHTFSNYVMGWFRQAPGKEREFVAAISWGGSNTYYADSVKGRFTISRDNAKNTVYLQMNSLKVEDTAVYYCAADRRFEGWNYYSMDYWGKGTQVTVSS
notes: tested as periplasmic extract; also called 3CRH73

Each binder was assayed against T1, biotinylated mouse recombinant IL-12Rβ2 … (assay: ELISA, periplasmic extract on biotinylated mouse IL-12Rβ2).

B1: no binding.
B2: no binding.
B3: no binding.
B4: no binding.
B5: no binding.

What follows are binders tested against T2, biotinylated recombinant human IL-12Rβ2 (assay: BLI (Octet), periplasmic extract on biotinylated hIL-12Rβ2 on streptavidin tips, 1:1 model).

B6 and B7 are within 1.5-fold of each other in koff: 0.00354 s⁻¹ for the first, 0.00274 s⁻¹ for the second.

B8 and B9 are within 1.5-fold of each other in koff: 0.00486 s⁻¹ for the first, 0.00636 s⁻¹ for the second.

B10 and B11 are within 1.5-fold of each other in koff: 0.00383 s⁻¹ for the first, 0.00302 s⁻¹ for the second.

Binder B12 has a koff of 0.0052 s⁻¹.

The binders below were run against T2, biotinylated recombinant human IL-12Rβ2 (assay: BLI (Octet), periplasmic extract on biotinylated hIL-12Rβ2 on streptavidin tips).

Compared with B6, B7 is lower in Response: 0.479 for the first, 0.426 for the second.

Going from B8 to B9, the Response rises from 0.426 to 0.69.

Compared with B10, B11 is lower in Response: 0.388 for the first, 0.163 for the second.

Binder B12 has a Response of 0.565.

Each binder was assayed against T2, biotinylated recombinant human IL-12Rβ2 (assay: ELISA, periplasmic extract on biotinylated hIL-12Rβ2, signal over control wells).

Compared with B6, B7 is higher in “ELISA binding hIL-12RB2/control” value: 4.57 ratio for the first, 16.1 ratio for the second.

Going from B8 to B9, the “ELISA binding hIL-12RB2/control” value rises from 3.45 ratio to 5.01 ratio.

Going from B10 to B11, the “ELISA binding hIL-12RB2/control” value falls from 3.49 ratio to 3.32 ratio.

With B12 the “ELISA binding hIL-12RB2/control” value was 6.45 ratio.

The binders below were run against T3, human IL-12Rβ2 expressed on cells (assay: flow cytometry, periplasmic extract VHH-HA on HEK293T cells transiently expressing human IL-12Rβ2).

First: B1
Second: B2
The “% cells bound” value of the first is lower: 40.1% for the first, 50.5% for the second.

First: B3
Second: B4
The “% cells bound” value of the first is higher: 46% for the first, 41.5% for the second.

In the case of B5, the “% cells bound” value is reported as 42.1%.

Compared with B1, B2 is higher in dMFI: 744 for the first, 1380 for the second.

First: B3
Second: B4
The dMFI of the first is higher: 1140 for the first, 870 for the second.

Work on B5 yielded a dMFI of 941.

What follows are binders tested against T1, biotinylated mouse recombinant IL-12Rβ2 … (assay: ELISA, periplasmic extract on biotinylated mouse IL-12Rβ2; signal over streptavidin control well).

Compared with B1, B2 is lower in “mIL12RB2/control (ELISA)” value: 1.77 ratio for the first, 0.98 ratio for the second.

Going from B4 to B5, the “mIL12RB2/control (ELISA)” value falls from 1.25 ratio to 1.09 ratio.

What follows are binders tested against T4, biotinylated human recombinant IL-12Rβ2 … (assay: BLI (Octet Red), periplasmic extract on biotinylated human IL-12Rβ2 on streptavidin tips, 1:1 model).

B1 and B2 are the same in koff: 0.00274 s⁻¹ for the first, 0.00274 s⁻¹ for the second.

Compared with B3, B4 is 1.6-fold lower in koff: 0.0043 s⁻¹ for the first, 0.00272 s⁻¹ for the second.

Binder B5 has a koff of 0.0034 s⁻¹.

What follows are binders tested against T5, biotinylated recombinant mouse IL-12Rβ2 (assay: ELISA, periplasmic extract on biotinylated mIL-12Rβ2, signal over control wells).

First: B6
Second: B7
The “ELISA binding mIL-12RB2/control” value of the first is lower: 0.937 ratio for the first, 1.77 ratio for the second.

Compared with B8, B9 is lower in “ELISA binding mIL-12RB2/control” value: 1.38 ratio for the first, 1.12 ratio for the second.

Compared with B10, B11 is lower in “ELISA binding mIL-12RB2/control” value: 1.11 ratio for the first, 1.08 ratio for the second.

With B12 the “ELISA binding mIL-12RB2/control” value was 1.18 ratio.

These binders were tested against T4, biotinylated human recombinant IL-12Rβ2 … (assay: BLI (Octet Red), periplasmic extract on biotinylated human IL-12Rβ2 on streptavidin tips).

First: B1
Second: B2
The Response of the first is higher: 0.426 for the first, 0.294 for the second.

Compared with B3, B4 is lower in Response: 0.327 for the first, 0.203 for the second.

Work on B5 yielded a Response of 0.222.

What follows are binders tested against T4, biotinylated human recombinant IL-12Rβ2 … (assay: ELISA, periplasmic extract on biotinylated human IL-12Rβ2; signal over streptavidin control well).

Compared with B1, B2 is lower in “hIL12RB2/control (ELISA)” value: 16.1 ratio for the first, 3.65 ratio for the second.

Going from B4 to B5, the “hIL12RB2/control (ELISA)” value falls from 7.85 ratio to 5.08 ratio.
